From publication PMC9884274

Biological target: WT Atezolizumab scFv-His6, purified
Assay: mass photometry; Refeyn TwoMP, room temperature, 1X PBS; PD-L1 at 7.4, 18.5 and 74 nM; each scFv at 100 nM

In the case of WT Atezolizumab scFv-His6, purified, the stoichiometry N is reported as 2.
